Patent US20110123549A1 (KALOBIOS PHARMACEUTICALS, published 2011)

T1: EphA3 expressed on the surface of human cells (SKmel28 human melanoma, LnCAP prostate cancer line, primary … (human, UniProt P29320 21-983))
T1 construct: whole, on cells; It gives no species for LnCAP, and the leukemia cells come from patients; also called SKme128; primary leukemia cells expressing EphA3
T1 sequence (looked up): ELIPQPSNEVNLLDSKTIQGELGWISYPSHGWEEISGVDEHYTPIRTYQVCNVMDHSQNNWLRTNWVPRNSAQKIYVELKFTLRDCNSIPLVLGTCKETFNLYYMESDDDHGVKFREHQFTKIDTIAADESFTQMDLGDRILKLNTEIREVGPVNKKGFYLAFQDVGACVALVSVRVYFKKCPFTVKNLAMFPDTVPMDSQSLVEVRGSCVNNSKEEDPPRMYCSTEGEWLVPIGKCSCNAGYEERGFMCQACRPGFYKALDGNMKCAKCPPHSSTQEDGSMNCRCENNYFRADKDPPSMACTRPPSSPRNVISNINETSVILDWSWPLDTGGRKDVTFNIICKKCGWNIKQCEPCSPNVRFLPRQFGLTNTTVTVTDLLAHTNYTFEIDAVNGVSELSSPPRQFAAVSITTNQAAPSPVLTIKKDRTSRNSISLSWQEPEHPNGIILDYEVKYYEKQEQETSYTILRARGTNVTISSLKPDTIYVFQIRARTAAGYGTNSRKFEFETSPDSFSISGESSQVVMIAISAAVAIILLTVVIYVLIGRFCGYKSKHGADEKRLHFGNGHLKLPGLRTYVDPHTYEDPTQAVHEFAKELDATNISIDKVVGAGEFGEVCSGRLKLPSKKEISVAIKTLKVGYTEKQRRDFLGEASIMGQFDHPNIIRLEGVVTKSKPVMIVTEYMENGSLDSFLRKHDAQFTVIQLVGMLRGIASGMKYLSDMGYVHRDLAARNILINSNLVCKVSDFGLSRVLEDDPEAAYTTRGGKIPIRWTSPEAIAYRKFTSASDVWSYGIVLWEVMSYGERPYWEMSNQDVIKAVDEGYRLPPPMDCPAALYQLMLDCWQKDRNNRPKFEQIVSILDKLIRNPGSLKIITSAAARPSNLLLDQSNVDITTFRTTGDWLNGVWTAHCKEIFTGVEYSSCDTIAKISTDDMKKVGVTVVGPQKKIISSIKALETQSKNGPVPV

T2: EphA3-Fc recombinant fusion protein (UniProt P29320 21-541, limits assumed)
T2 construct: also called the antigen
T2 sequence (looked up): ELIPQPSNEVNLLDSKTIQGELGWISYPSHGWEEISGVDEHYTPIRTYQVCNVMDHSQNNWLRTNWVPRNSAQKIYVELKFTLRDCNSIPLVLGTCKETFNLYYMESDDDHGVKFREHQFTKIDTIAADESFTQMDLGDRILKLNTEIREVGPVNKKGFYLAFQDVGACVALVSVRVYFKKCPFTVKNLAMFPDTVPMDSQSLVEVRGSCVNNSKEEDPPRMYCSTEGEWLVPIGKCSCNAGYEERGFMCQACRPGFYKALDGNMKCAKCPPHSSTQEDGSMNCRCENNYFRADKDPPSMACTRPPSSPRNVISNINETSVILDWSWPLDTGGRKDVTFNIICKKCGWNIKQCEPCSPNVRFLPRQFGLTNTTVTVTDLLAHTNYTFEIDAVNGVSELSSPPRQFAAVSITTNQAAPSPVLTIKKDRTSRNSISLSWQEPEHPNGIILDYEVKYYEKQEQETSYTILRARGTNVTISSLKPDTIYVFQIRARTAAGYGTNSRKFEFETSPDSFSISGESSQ

T3: EphA3 expressed on the surface of B16 mouse melanoma cells (mouse, UniProt P29319 21-983)
T3 construct: whole, on cells; Endogenous EphA3 of a tumor cell line known to express EphA3; also called B16-F10
T3 sequence (looked up): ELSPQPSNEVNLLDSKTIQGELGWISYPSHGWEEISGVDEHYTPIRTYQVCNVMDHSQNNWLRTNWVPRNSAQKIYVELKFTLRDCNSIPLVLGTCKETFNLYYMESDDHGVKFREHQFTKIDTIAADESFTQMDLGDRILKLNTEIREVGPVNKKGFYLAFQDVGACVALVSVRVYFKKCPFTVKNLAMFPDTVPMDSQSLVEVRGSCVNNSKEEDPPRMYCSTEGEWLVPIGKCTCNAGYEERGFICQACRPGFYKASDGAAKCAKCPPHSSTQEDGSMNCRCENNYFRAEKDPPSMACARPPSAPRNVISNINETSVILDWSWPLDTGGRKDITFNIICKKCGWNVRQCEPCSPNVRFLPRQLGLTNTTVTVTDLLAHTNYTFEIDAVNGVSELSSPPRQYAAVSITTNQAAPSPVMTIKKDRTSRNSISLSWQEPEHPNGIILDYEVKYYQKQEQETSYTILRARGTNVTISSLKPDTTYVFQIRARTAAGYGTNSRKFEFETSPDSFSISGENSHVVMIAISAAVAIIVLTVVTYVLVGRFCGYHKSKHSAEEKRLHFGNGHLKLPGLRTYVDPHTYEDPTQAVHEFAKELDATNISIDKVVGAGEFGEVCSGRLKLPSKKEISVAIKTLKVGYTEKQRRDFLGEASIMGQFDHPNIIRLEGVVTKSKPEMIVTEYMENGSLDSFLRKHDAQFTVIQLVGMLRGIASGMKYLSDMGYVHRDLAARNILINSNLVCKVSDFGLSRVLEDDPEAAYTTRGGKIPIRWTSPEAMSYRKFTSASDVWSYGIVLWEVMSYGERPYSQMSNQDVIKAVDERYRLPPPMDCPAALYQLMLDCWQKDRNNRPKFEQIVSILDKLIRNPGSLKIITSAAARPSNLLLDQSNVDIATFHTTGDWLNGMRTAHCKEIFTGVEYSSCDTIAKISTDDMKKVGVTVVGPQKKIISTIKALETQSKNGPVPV


What was measured:
[1] = biological target: T1, EphA3 expressed on the surface of human …; experiment: flow cytometry on live SKmel-28 cells, 5 ug/ml IgG, anti-human IgG phycoerythrin conjugate [SKmel-28]
Source text: (§1) B16, SKme128, and LnCAP cells were blocked with 2% BSA and rat IgG and probed with engineered anti-EphA3 IgG, chimeric IIIA4 IgG or an isotype control IgG. Bound antibody was detected by an anti-human IgG Phycoerythrin conjugate using a Facs Caliber flow cytometry (BD). Dead cells were excluded by propidium iodide staining For each graph, the control antibody profile is the left-most curve shown in the graph.
(§2) Typically, 3×10⁶ cells of SKme128, LnCAP and B16-F10 were collected by centrifugation at 3000 rpm for 3 minutes. Media were removed and the cells blocked with 2% BSA in PBS for 30 minutes at 4° C. followed by a second block with 10 μg/ml rat IgG for 30 minutes at 4° C. Cells were pelleted, re-suspended in 1.5 ml PBS and divided into 500 μl aliquots. Each aliquot was probed separately with 5 μg/ml of control IgG, humaneered IgG or chimeric IIIA4 IgG for 45 minutes at 4° C. The samples were washed once in PBS and anti-human IgG-phycoerythrin-conjugate was added. After 45 minutes, cells were washed once, re-suspended in PBS and analyzed by flow cytometry using a FACS Caliber flow cytometery. Propidium iodide was added just prior to analysis to exclude dead cells.
(§3) The exemplary engineered antibody was also tested for binding to EphA3 expressed on the surface of live cells. […] Bound antibody was detected using flow cytometry by an anti-human IgG phycoerythrin conjugate (FIG. 5). […]

[2] = biological target: T2, EphA3-Fc recombinant fusion protein; experiment: ELISA, plate coated with EphA3-Fc, detection with anti-human kappa chain HRP conjugate, A450
Source text: A full-length antibody (IgG1κ) was constructed, expressed from CHO cells and purified by Protein A affinity chromatography. ELISA plates were coated with EphA3-Fc and binding of cIIIA4 IgG, an exemplary engineered IgG, and a control IgG1 were compared (FIG. 3). The EC₅₀ in this assay was approximately three-fold lower for the engineered IgG than for the original chimeric antibody.

[3] = biological target: T3, EphA3 expressed on the surface of B16 …; experiment: flow cytometry on live B16 cells, 5 ug/ml IgG, anti-human IgG phycoerythrin conjugate [B16]
Source text: as §1, §2, §3

[4] = biological target: T2, EphA3-Fc recombinant fusion protein; experiment: SPR (Biacore), 25 C, high density surface, 1:1 model
Description: (§4) Binding kinetics of two engineered Fabs and reference Fab FA106 were analyzed using a Biacore. The three Fabs were diluted from the starting concentration of 500 nM to 100 nM and further tested in a three-fold dilution series using PBS, pH 7.4 with 0.005% Tween-20 and 0.1 mg/ml BSA. Each of the five concentrations was tested three times over the three different density surfaces. Assays were run at 25° C. The response data from each surface were fit to a 1:1 interaction model.

[5] = biological target: T2, EphA3-Fc recombinant fusion protein; experiment: SPR (Biacore), 25 C, low density surface, 1:1 model
Description: as §4

[6] = biological target: T2, EphA3-Fc recombinant fusion protein; experiment: SPR (Biacore), 25 C, low density surface, 1:1 model; low chip density
Description: as §4

[7] = biological target: T2, EphA3-Fc recombinant fusion protein; experiment: SPR (Biacore), 25 C, medium density surface, 1:1 model; medium chip density
Description: as §4

[8] = biological target: T2, EphA3-Fc recombinant fusion protein; experiment: SPR (Biacore), 25 C, high density surface, 1:1 model; high chip density
Description: as §4

[9] = biological target: T2, EphA3-Fc recombinant fusion protein; experiment: SPR (Biacore), 25 C, medium density surface, 1:1 model
Description: as §4

[10] = biological target: T2, EphA3-Fc recombinant fusion protein; experiment: SPR (Biacore), 25 C, average of three surface densities, 1:1 model
Description: as §4

| binding result [1] | EC50 (read off the curve) [2] | binding result [3] | Kd [4] | kon [4] | Kd [5] | kon [5] | koff [6] | koff [7] | koff [8] | Kd [9] | kon [9] | Kd [10] | koff [10] | kon [10] | Binder |
| --- | --- | --- | --- | --- | --- | --- | --- | --- | --- | --- | --- | --- | --- | --- | --- |
| binds | ~0.2 µg/mL | binds | – | – | – | – | – | – | – | – | – | – | – | – | Chimeric IIIA4 IgG (antibody, V domains shown, also called original chimeric antibody) VH: EVKLEESGAELVKPGSSVKLSCKASGYNFTSYWINWVRLRPGQGLEWIGDIYPGSGNTNYDEKFKRKATLTVDTSSSTAYMQLSSLASEDSALYYCTRSGYYEDFDSWGQGTTLIVSS VL: DIVLTQTPSSLSASLEERVSLTCRASQEISGYLGWLQQKPDGTIKRLIYAASTLDSGVPKKFSGNRSGSEYSLTISSLESEDFADYYCVQYANYPYTFGGGTKLEIK |
| – | – | – | 2.06 nM | 1.67e+06 M⁻¹ s⁻¹ | 1.4 nM | 4.1e+06 M⁻¹ s⁻¹ | 0.0058 s⁻¹ | 0.00178 s⁻¹ | 0.00345 s⁻¹ | 2.91 nM | 611000 M⁻¹ s⁻¹ | 2.1 nM | 0.003 s⁻¹ | 2e+06 M⁻¹ s⁻¹ | optimized reference Fab FA106 (Fab, V domains shown, Fab derived from FA4 with several framework residues changed to human germ-line; Expressed in E. coli) VH: EVKLEESGAELVKPGSSVKLSCKASGYNFTSYWINWVRLRPGQGLEWIGDIYPGSGNTNYDEKFKRKATLTVDTSSSTAYMQLSSLASEDTAVYYCARSGYYEDFDSWGQGTTVTVSS VL: DIVLTQTPSSLSASLEERVSLTCRASQEISGYLGWLQQKPDGTIKRLIYAASTLDSGVPKKFSGNRSGSEYSLTISSLESEDFATYYCVQYANYPYTFGQGTKLEIK |
